Results reported in the supplement of paper PMC12042874.
± gives the uncertainty stated by the source.

test: amyloid nucleation score (Sup35N fusion, yeast selection) (log enrichment); library NNK1; higher = more nucleation; inactive = no reads after selection
How it was run: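 Libraries of peptides of 20 random codons fused to Sup35N were expressed in psi-negative yeast and induced 24 hours with 100 μM copper sulfate. Selection was 7 days at 30°C on medium lacking adenine and uracil, and plasmid inserts were Illumina-sequenced before and after selection. Nucleation score is the DiMSum log enrichment of output over input reads, centred on the mode score of non-aggregating sequences, and sequences with under 100 input reads were left out.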

Point of comparison: DATVQTWGDVKSGLWWVCCP, amyloid nucleation score 5.62 ± 0.098. Against it:
- CLLIVRISNSKFVVPPTVFA — lower, 0.608 ± 0.49
- CLLVLLLGLRLPYRPRLVFV — lower, 0.463 ± 0.79
- CLNSHFGKNISNLFVCDLVC — lower, 0.484 ± 0.61
- CLNVCSLFRSTYRFKRVREC — lower, 0.434 ± 0.37
- CLQDMFFTNELSFAGTLLIS — lower, 0.049 ± 0.34
- CLRDNSRRGRNVQSL — lower, -1 ± 1.5
- CLSCSNICFFIHSVNWDVFS — lower, 5.27 ± 0.11
- CLSVLSCSVTSNYWLTS — higher, 7.984 ± 0.056
- CLTGIGKLPVGSGPV — lower, 0.198 ± 0.77
- CLTLPYYSIYAVGESRMFEW — lower, 0.003 ± 0.27
- CLTMWIV — lower, -0.285 ± 0.68
- CLVELVYFCGLSVGQ — lower, -0.17 ± 0.85
- CLVVTETANI — lower, -0.578 ± 0.69
- CLWCDRTVASWAKVSASVRL — lower, -0.073 ± 0.24
- CMAVWEKIENGVHLLHRSAD — lower, 2.76 ± 0.12
- CMDKCVCERHPYL — lower, -0.345 ± 1.7
- CMLSCFSDRAWIMQRSVCAC — lower, 0.879 ± 0.65
- CMLVYCEVASVGVSFKLWWR — lower, 1.73 ± 0.39
- CMSSLLFD — lower, 0.921 ± 0.49
- CMWPFTDYTIIKTSLYTWTN — lower, -1.09 ± 0.53
- CNMVHVVIERDGSGRRGCGL — lower, 5.38 ± 0.055
- CNMVLFRVKYY — lower, 2.67 ± 0.1
- CPHALYKSLIIPGSMFYKVR — lower, -1.04 ± 1.7
- CPRHVALGHLNYLGQDFDLK — lower, 0.326 ± 1.2
- CPSIILPFVYRNGSVTMVPF — lower, 0.927 ± 0.2
- CPVRSRIVVRCLYFSHMRST — lower, 0.263 ± 1.1
- CQLNTASVSNNGGRVLGMYR — lower, 0.529 ± 0.79
- CRAGY — lower, -0.534 ± 0.64
- CRDAILIEVGNYRHLVLGPV — lower, 0.677 ± 0.52
- CREVAKFGKLSNRQSRGCAI — lower, -0.951 ± 1.4
- CRLFYSWNVNMYRNMLLRWI — lower, -0.767 ± 0.33
- CRLIVISTTYIIKAQKCLIG — lower, -0.512 ± 0.33
- CRLVVMVIVQLHGIDFELAL — lower, 0.951 ± 0.54
- CRRIHFLVTMVTGSPLCLSG — lower, -0.627 ± 0.32
- CRSFYIIEIVKMGPNGRKGV — lower, -1 ± 0.78
- CSAFDVIN — lower, -0.556 ± 1.4
- CSAQTGVGSFPFGNIPVVSV — lower, 0.789 ± 0.56
- CSAVS — lower, 0.241 ± 0.39
- CSCVCETEGRLSSSCYHHMP — lower, 0.184 ± 0.38
- CSDNV — lower, 1.01 ± 0.49
- CSLILALPN — lower, 0.951 ± 0.6
- CSLLSAPPVDSLWGTESRLI — lower, -0.804 ± 0.73
- CSNDLECFCDFNCRL — lower, -0.033 ± 0.39
- CSNEK — lower, 0.319 ± 0.97
- CSNRWCLKTRVERVMERGSV — lower, 0.218 ± 0.54
- CSQDYFIYYYPVLMLE — lower, -0.112 ± 0.46
- CSSKGCLVSESFLHLMTNLC — lower, 0.969 ± 0.42
- CSSWVMGLIFWECLKNMDKV — lower, -1.39 ± 1.3
- CSTALLDEKLLFHGTYIMRD — lower, 1.08 ± 0.57
- CSVGASAIGNM — lower, 0.717 ± 0.59
- CSVTLVVRV — lower, 0.676 ± 0.63
- CSYSLSRFVLIHDRIVNMVT — lower, 1.35 ± 0.4
- CTTNIPAKLHLNSVVRVVRA — lower, -1.27 ± 2.7
- CVALGGLMAMLIASVIWENN — lower, -0.354 ± 0.72
- CVALGLLGRCVLLVAGGGWA — lower, 0.503 ± 0.54
- CVANLPGSKVLVWNTKFK — lower, 5.38 ± 0.056
- CVAWVSSNPRVGGDIRTWTE — lower, 0.021 ± 0.48
- CVGRQLAGKAYLVLRWRECD — lower, -0.372 ± 1.4
- CVHAHTTHITSCRARPSTEA — lower, 0.435 ± 0.28
- CVLPYCS — lower, 0.297 ± 0.54
- CVRRLRVLCTFLLVTLLYCI — lower, 1.67 ± 0.29
- CVSEDDMLLDYDPVCKFVWW — lower, 2.62 ± 0.15
- CVSLCVHKDMIVIAPGTLTQ — lower, 4.81 ± 0.064
- CVTCFTLGSVRGKRTASACW — lower, 0.322 ± 0.18
- CVWNYCAWFTVARNTTLFNN — lower, -0.508 ± 0.89
- CWGFYL — lower, -0.976 ± 1.1
- CWLMGMSGPPFDRVWGVVIR — lower, -0.086 ± 1.2
- CWYLYRFSNTMMNRTTLPCG — lower, -0.169 ± 0.53
- CYAGFCNQRLPHYLLKLQVL — lower, -0.42 ± 1.7
- CYCFET — lower, -0.381 ± 0.71
- CYCWPTTKKIPFKSL — lower, -0.739 ± 1.9
- CYTLFAVVNMLLVFNWQCRD — lower, -0.34 ± 0.36
- CYVSS — lower, -0.548 ± 0.53
- DAFAGF — lower, 0.054 ± 0.59
- DAGGYLQEIARTPFTVARQQ — lower, 0.195 ± 0.35
- DAPVTSSGSML — lower, 0.008 ± 0.23
- DAQWAYYTRTYFWYVFSAVC — lower, 0.27 ± 0.23
- DARLFDFYFANLVSSQGNCF — lower, 1.09 ± 0.56
- DASSKIRPSIGRMQKHWY — lower, -0.513 ± 0.85
- DASTEITGLAPGFSTTVGRM — lower, -0.536 ± 0.81
- DAVPSFTA — lower, -0.666 ± 0.69
- DAVQLMSCCMTISGPTKNRA — lower, 0.184 ± 0.56

In the case of CNDFCCT, the amyloid nucleation score is reported as “inactive”.
With CPGLFVGLCPMAHMVACCHR the amyloid nucleation score was “inactive”.
For CRACRLRVIFNELMVGWVMF, the amyloid nucleation score was “inactive”.
For CVNQWILVPGRAF, the amyloid nucleation score was “inactive”.
